The assay addresses T1, membrane LAG3 (membrane-bound LAG3 expressed on immune cells) (human, UniProt P18627 23-525).
T1 sequence: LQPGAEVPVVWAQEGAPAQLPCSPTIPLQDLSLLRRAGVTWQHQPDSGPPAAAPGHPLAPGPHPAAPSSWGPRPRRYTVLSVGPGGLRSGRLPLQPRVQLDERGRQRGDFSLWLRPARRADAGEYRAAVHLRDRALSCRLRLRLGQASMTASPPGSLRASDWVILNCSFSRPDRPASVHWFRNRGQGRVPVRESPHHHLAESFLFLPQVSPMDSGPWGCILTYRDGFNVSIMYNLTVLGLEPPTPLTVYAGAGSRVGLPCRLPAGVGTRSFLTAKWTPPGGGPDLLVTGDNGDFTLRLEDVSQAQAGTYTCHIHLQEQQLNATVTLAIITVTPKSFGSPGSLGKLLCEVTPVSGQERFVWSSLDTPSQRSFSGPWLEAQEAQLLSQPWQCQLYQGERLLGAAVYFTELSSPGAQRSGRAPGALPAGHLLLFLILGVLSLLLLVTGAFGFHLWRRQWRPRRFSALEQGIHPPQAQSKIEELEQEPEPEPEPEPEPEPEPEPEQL
As to the kind of experiment: statement in Example 2 (rationale for sLAG3 as target engagement marker); no assay described.

B1: anti-LAG3 antibody Ab6 (antibody, human IgG4 S228P, kappa, V domains shown)
VH: QMQLVQSGPEVKKPGTSVKVSCKASGYTFTDYNVDWVRQARGQRLEWIGDINPNDGGTIYAQKFQERVTITVDKSTSTAYMELSSLRSEDTAVYYCARNYRWFGAMDHWGQGTTVTVSS
VL: DIVMTQTPLSLSVTPGQPASISCKASQSLDYEGDSDMNWYLQKPGQPPQLLIYGASNLESGVPDRFSGSGSGTDFTLKISRVEAEDVGVYYCQQSTEDPRTFGGGTKVEIKR
notes: The claims say two heavy and two light chains
On to B1, for which the binding result was “binds”.

(Values after patent publication US20210347889A1 (Merck Sharp & Dohme, published 2021).)
